Measured values from the Immune Epitope Database (IEDB).
Each block holds one sequence with its values, some of them ahead of it.

What was measured:
[1] = target: HLA-A*02:01; assay: IEDB peptide-MHC binding, purified MHC/competitive/radioactivity; filed as Kd, often an IC50 or EC50 that approximates it; ≥ and ≤ were set here for values at or beyond the usual limits of such assays
[2] = target: HLA-A*02:03; assay: as above
[3] = target: HLA-A*32:01; assay: as above
[4] = target: HLA-A*26:01; assay: as above
[5] = target: HLA-A*29:02; assay: as above
[6] = target: HLA-A*30:01; assay: as above
[7] = target: HLA-A*30:02; assay: as above
[8] = target: HLA-A*01:01; assay: as above
[9] = target: HLA-A*01:01; assay: IEDB peptide-MHC binding, purified MHC/direct/fluorescence; filed as Kd, often an IC50 or EC50 that approximates it; ≥ and ≤ were set here for values at or beyond the usual limits of such assays; settings: source organism: Influenza A virus (A/Moscow/343/2003(H3N2))
[10] = target: HLA-B*15:01; assay: IEDB peptide-MHC binding, purified MHC/competitive/radioactivity; filed as Kd, often an IC50 or EC50 that approximates it; ≥ and ≤ were set here for values at or beyond the usual limits of such assays
[11] = target: HLA-B*08:01; assay: as above
[12] = target: HLA-B*40:01; assay: as above
[13] = target: HLA-B*44:02; assay: as above
[14] = target: HLA-A*31:01; assay: as above
[15] = target: HLA-A*24:02; assay: IEDB peptide-MHC binding, purified MHC/competitive/fluorescence; ≥ and ≤ were set here for values at or beyond the usual limits of such assays
[16] = target: HLA-A*02:01; assay: as above
[17] = target: HLA-A*03:01; assay: IEDB peptide-MHC binding, purified MHC/direct/fluorescence; filed as Kd, often an IC50 or EC50 that approximates it; ≥ and ≤ were set here for values at or beyond the usual limits of such assays
[18] = target: HLA-A*31:01; assay: as above
[19] = target: HLA-A*11:01; assay: as above; settings: source organism: Homo sapiens
[20] = target: HLA-B*27:05; assay: as above; settings: source organism: Homo sapiens
[21] = target: HLA-A*03:01; assay: IEDB peptide-MHC binding, purified MHC/competitive/radioactivity; filed as Kd, often an IC50 or EC50 that approximates it; ≥ and ≤ were set here for values at or beyond the usual limits of such assays; settings: source organism: Vaccinia virus WR
[22] = target: HLA-A*68:01; assay: as above
[23] = target: HLA-A*33:01; assay: as above
[24] = target: HLA-A*11:01; assay: as above; settings: source organism: Vaccinia virus WR
[25] = target: HLA-A*02:01; assay: IEDB peptide-MHC binding, purified MHC/competitive/fluorescence; filed as Kd, often an IC50 or EC50 that approximates it; ≥ and ≤ were set here for values at or beyond the usual limits of such assays
[26] = target: HLA-A*02:06; assay: IEDB peptide-MHC binding, purified MHC/competitive/radioactivity; filed as Kd, often an IC50 or EC50 that approximates it; ≥ and ≤ were set here for values at or beyond the usual limits of such assays
[27] = target: HLA-B*44:03; assay: as above
[28] = target: HLA-A*02:02; assay: as above; settings: source organism: Homo sapiens
[29] = source organism: Dengue virus 3 Martinique/1243/1999
[30] = source organism: Mammarenavirus brazilense
[31] = source organism: Dengue virus 1 Singapore/S275/1990
[32] = source organism: Dengue virus 1 Brazil/97-11/1997
[33] = source organism: Dengue virus 2 Jamaica/1409/1983
[34] = source organism: Sudan ebolavirus
[35] = source organism: Rickettsia prowazekii
[36] = source organism: Vaccinia virus WR
[37] = source organism: Brucella melitensis
[38] = source organism: Mammarenavirus guanaritoense
[39] = source organism: Vaccinia virus
[40] = source organism: Vaccinia virus Copenhagen
[41] = source organism: Dengue virus 4 Philippines/H241/1956
[42] = source organism: Zaire ebolavirus
[43] = source organism: Dengue virus 4 Dominica/814669/1981
[44] = source organism: SARS coronavirus Tor2
[45] = source organism: Mammarenavirus whitewaterense

Sequence: GLFGKGSLV
Kd ([1]; source organism: dengue virus type 3): 2.9 nM | Kd [2, 29]: 2.92 nM

Sequence: KTLHSSVQSY
Kd [3, 30]: 527 nM | Kd [4, 30]: ≥ 36800 nM | Kd [5, 30]: 6180 nM | Kd [6, 30]: 573 nM | Kd [7, 30]: 73.5 nM | Kd [8, 30]: 4920 nM

Sequence: DTKIDLWSY
Kd [9]: ≥ 20000 nM

Sequence: IMAVGIVSIL
Kd [10, 31]: 8.03 nM | Kd [11, 31]: 173 nM

Sequence: AEALKGMPI
Kd [12, 32]: 122 nM | Kd [13, 32]: 1.01 nM

Sequence: KSKAINVLR
Kd [14, 33]: 1.1 nM | Kd [6, 33]: 103 nM

Sequence: ATGKCNPNL
IC50 [15, 34]: ≥ 142000 nM | IC50 [16, 34]: 12300 nM

Sequence: KWLKIITPK
Kd [17, 35]: ≥ 20000 nM | Kd [18, 35]: 217 nM

Kd [19]: ≥ 37700 nM | Kd [20]: 1060 nM
Sequence: GRNSFEVRV

Sequence: ASNIVLDQI
IC50 [15, 36]: 5240 nM | IC50 [16, 36]: ≥ 86200 nM

Sequence: RVRIPDVAR
Kd [17, 37]: 293 nM | Kd [18, 37]: 23.4 nM

Sequence: ISRNKNIFV
Kd [6, 36]: 7.28 nM

Sequence: LMALKLITQF
Kd [10, 29]: 149 nM

Sequence: RIRQQLPLY
Kd [21]: 21.5 nM | Kd [22, 36]: 1190 nM | Kd [14, 36]: 773 nM | Kd [23, 36]: ≥ 77700 nM | Kd [24]: 553 nM | Kd [6, 36]: 12.8 nM

Sequence: HTAEAGGRAY
Kd [10, 33]: 115 nM | Kd [4, 33]: 24.6 nM | Kd [7, 33]: 25.1 nM | Kd [8, 33]: ≥ 70400 nM

Sequence: EDDRERLKV
IC50 ([15]; source organism: Variola virus): 16.8 nM

Sequence: TFKKSGAIK
Kd [6, 29]: 1200 nM

Sequence: YIRFRKNHI
Kd [10, 36]: 1010 nM | Kd [11, 36]: 1.44 nM

Sequence: VLSPTIGHV
Kd [25, 36]: 4 nM

Sequence: KEISSMLNIM
Kd [12, 32]: 11.1 nM

Sequence: SLKDVLVSV
Kd ([25]; source organism: Horsepox virus): 3.6 nM

Sequence: ELLSYCVSLF
Kd [3, 38]: 2640 nM | Kd [4, 38]: 99.3 nM | Kd [5, 38]: 5800 nM | Kd [6, 38]: 1060 nM | Kd [7, 38]: 9750 nM | Kd [8, 38]: 261 nM

Sequence: LDRPHTPQF
IC50 [15, 34]: 23800 nM

Sequence: DRDINPIVK
IC50 [15, 39]: 33500 nM

Sequence: AQMWQLMYF
Kd [26, 32]: 9.54 nM | Kd [10, 32]: 1.58 nM

Sequence: KLFSDISAI
Kd [25, 39]: 2.2 nM

Sequence: CINGVCWTA
Kd ([1]; source organism: hepatitis C virus genotype 1a): 2700 nM

Sequence: MVRLTTQGL
Kd [6, 40]: 8.32 nM

Sequence: AQNALDNLVM
Kd [10, 32]: 2.02 nM

Sequence: KLHSGVDVFY
Kd [10, 41]: 2.76 nM | Kd [7, 41]: 12.1 nM | Kd [8, 41]: 2870 nM

Sequence: ESRFTPQFL
IC50 [15, 42]: 22400 nM

Sequence: YLKEEQDQQY
Kd [10, 41]: 7.59 nM | Kd [8, 41]: 15600 nM

Sequence: MVLPGAANK
Kd [6, 36]: 58.9 nM

Sequence: QLAYVVIGIL
Kd [11, 29]: ≥ 10000 nM

Sequence: MQKFTILEY
Kd [21]: 470 nM | Kd [22, 36]: 10800 nM | Kd [14, 36]: 174 nM | Kd [10, 36]: 10.1 nM | Kd [23, 36]: ≥ 54500 nM | Kd [24]: 39.8 nM

Sequence: EEEEQTLTI
Kd [12, 33]: 103 nM

Sequence: IYRGTTFAE
IC50 [15, 42]: 9880 nM

Sequence: AENTNSVTNI
Kd [12, 43]: 461 nM | Kd [27, 43]: 372 nM | Kd [13, 43]: 130 nM

Sequence: YIKFIFLQM
Kd [10, 36]: 1350 nM | Kd [11, 36]: 8.58 nM

Sequence: VMVMVGATM
Kd [10, 33]: 2.77 nM

Sequence: LVYKKMQSY
Kd [10, 36]: 45.7 nM

Sequence: MVCPNINAF
Kd [10, 36]: 22 nM

Sequence: TGILQLPRD
IC50 [15, 42]: ≥ 506000 nM | IC50 [16, 42]: ≥ 584000 nM

Sequence: HKQWFLDLPL
Kd [11, 32]: 57 nM

Sequence: AWQSVGHMM
IC50 [15, 42]: 34700 nM | IC50 [16, 42]: ≥ 180000 nM

Kd ([26]; source organism: Homo sapiens): ≥ 78700 nM | Kd ([1]; source organism: Homo sapiens): ≥ 24300 nM | Kd [28]: 16400 nM | Kd ([2]; source organism: Homo sapiens): 13600 nM
Sequence: DLEDLKDQI

Sequence: KSKNINIEV
Kd [6, 36]: 0.324 nM

Sequence: KGKRALAPPV
Kd [6, 41]: 2.27 nM

Sequence: RFTPQFLLQ
IC50 [15, 42]: 4080 nM

Kd ([25]; source organism: Schaalia radingae): 10 nM
Sequence: KLVVVAVGV

Sequence: IHQGMHMVA
IC50 [15, 42]: ≥ 185000 nM | IC50 [16, 42]: ≥ 84700 nM

Sequence: KAYHIIFFV
Kd [6, 36]: 405 nM

Sequence: ALHQVFGAIY
Kd [10, 33]: 4.38 nM | Kd [7, 33]: 71.8 nM

Sequence: GLLEAGNSL
Kd [25, 36]: 3.2 nM

Sequence: EPIKHKYPL
Kd [11, 36]: 1.27 nM

Sequence: SLNLRIKIL
Kd [11, 36]: 92 nM

Sequence: GQITWRDMAH
Kd [10, 29]: 153 nM

Sequence: KEEYVDYMPV
Kd [12, 41]: 68.7 nM

Sequence: VVKATYLLK
Kd [6, 36]: 0.32 nM

Sequence: HTKIDSMFL
Kd [6, 36]: 1.46 nM | IC50 ([16]; source organism: Variola virus): 53700 nM

Sequence: CTREEFISK
Kd [6, 41]: 21.1 nM

Sequence: YLKKKNHPL
Kd ([25]; source organism: Bacillus cereus G9241): 6 nM

Sequence: TTKNGQPRK
Kd [6, 36]: 0.233 nM

Sequence: EQMAPHHKIL
Kd [11, 41]: 59.7 nM

Sequence: CRSCTMPPLR
Kd [6, 41]: 1530 nM

Sequence: RLRGEARKTF
Kd [10, 33]: 49.3 nM

Sequence: NIMPLFPTF
Kd [11, 36]: 48.1 nM

Sequence: ALRANSAVK
Kd [22, 44]: ≥ 26400 nM | Kd [23, 44]: ≥ 77700 nM | Kd ([18]; source organism: SARS-CoV1): 479 nM

Sequence: MEEALRGLPI
Kd [12, 33]: 54.2 nM | Kd [27, 33]: 1110 nM | Kd [13, 33]: 29.3 nM

Sequence: LMNKENAEM
Kd [10, 36]: 7.7 nM

Sequence: SLRYSSKVF
Kd [11, 36]: 928 nM

Sequence: IWKVNPEID
IC50 [15, 42]: 62100 nM

Sequence: LRVLSIPPTA
Kd [6, 41]: 3500 nM

Sequence: YVNHTGFNV
Kd [3, 45]: ≥ 77800 nM | Kd [4, 45]: ≥ 53600 nM | Kd [5, 45]: 2470 nM | Kd [6, 45]: 1240 nM | Kd [7, 45]: ≥ 76900 nM | Kd [8, 45]: 5880 nM

Sequence: PLGLVDLFV
Kd ([1]; source organism: Lassa virus Josiah): 4170 nM

Sequence: NLNVTTQSI
IC50 [15, 39]: 11100 nM | IC50 [16, 39]: 44700 nM

Kd ([1]; source organism: Homo sapiens): 527 nM
Sequence: VLENFTILLV

Sequence: AEIPLQWIAS
Kd [12, 29]: 2240 nM | Kd [13, 29]: 200 nM

Sequence: SNKRHRPIG
Kd [11, 36]: 33.5 nM

Sequence: SEFNTYKRSG
Kd [12, 32]: 8760 nM | Kd [27, 32]: 7050 nM | Kd [13, 32]: 2170 nM

Sequence: SIKMKLVSI
Kd [11, 40]: 16.4 nM

Sequence: SLREISNIV
Kd [11, 36]: 10.2 nM

Kd ([25]; source organism: Escherichia coli O139:H28 str. E24377A): 3.4 nM
Sequence: ALAWSLQML

Sequence: RVRISLIYL
Kd [6, 36]: 0.0915 nM

Sequence: CIVNKFMSF
Kd [11, 36]: 60.4 nM

Sequence: ASKVFFGPI
Kd [11, 36]: 12800 nM

Sequence: ETWILRHPGF
Kd [4, 33]: 1380 nM | Kd [6, 33]: 12300 nM
